Source: US20200392227A1 (LYVGEN BIOPHARMA, published 2020)
Where two headings read alike, the source gives them in different places. Each block holds one binder with its values, some of them ahead of it.

Experiments:
Experiment in all cases: BLI
[1] = molecular target: T1, human FcRn protein (MednaBio, E1032) (human, UniProt P55899 24-297; P61769 21-119)
T1 construct: Bought; assays at pH 6
Method in brief: (§1)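 Binding was measured by biolayer interferometry on an Octet Red96 System, with commercial human Fc receptor proteins loaded at 20 μg/mL onto anti-penta-HIS biosensors. Sensors were dipped into an 8-point 1:3 dilution series of test IgG starting at 300 nM in PBS with 0.1% BSA and 0.02% Tween-20. Fcγ receptor assays ran at pH 7.2 and FcRn assays at pH 6. Kd, kon and koff came from global fitting to a 1:1 binding model.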

[2] = molecular target: T2, human FcRIIIA-F158 protein (MednaBio, E1036) (human, UniProt P08637 17-208)
T2 construct: Bought; also called FcγRIIIA(F)
Method in brief: as §1

[3] = molecular target: T3, human FcRIIB/C protein (MednaBio, E1034) (human, UniProt P31994 43-217, limits assumed)
T3 construct: Bought as FcRIIB/C; also called FcγRIIB; CD32B
T3 sequence (looked up): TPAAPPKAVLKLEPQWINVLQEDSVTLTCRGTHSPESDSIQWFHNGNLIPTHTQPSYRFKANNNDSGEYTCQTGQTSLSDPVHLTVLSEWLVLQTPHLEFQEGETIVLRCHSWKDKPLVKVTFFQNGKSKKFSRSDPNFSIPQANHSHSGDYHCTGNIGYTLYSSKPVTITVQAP
Method in brief: as §1

[4] = molecular target: T4, human FcRIIIB protein (MednaBio, E1037) (human, UniProt O75015 17-200)
T4 construct: Bought; also called FcγRIIIB; FcgRIIIB
Method in brief: as §1

[5] = molecular target: T5, human FcRIIA protein (MednaBio, E1033) (human, UniProt P12318 34-218, limits assumed)
T5 construct: Bought; also called FcγRIIA
T5 sequence (looked up): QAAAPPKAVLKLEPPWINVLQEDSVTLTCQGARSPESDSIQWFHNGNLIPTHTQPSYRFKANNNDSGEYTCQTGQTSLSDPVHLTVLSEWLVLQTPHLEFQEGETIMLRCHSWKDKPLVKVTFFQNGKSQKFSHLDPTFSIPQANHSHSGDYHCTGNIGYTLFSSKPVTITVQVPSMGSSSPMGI
Method in brief: as §1

[6] = molecular target: T6, human FcRI protein (MednaBio, E1031) (human, UniProt P12314 16-288, limits assumed)
T6 construct: Bought; loaded on anti-penta-HIS biosensors; also called FcγRI
Method in brief: as §1

[7] = molecular target: T7, human FcRIIIA-V158 protein (MednaBio, E1035) (human, UniProt P08637 17-208)
T7 construct: Bought; also called FcγRIIIA(V); FcgRIIIA(V)
Method in brief: as §1

[8] = molecular target: T2, human FcRIIIA-F158 protein (MednaBio, …); remark: listed apart in the source
Method in brief: as §1

[9] = molecular target: T2, human FcRIIIA-F158 protein (MednaBio, …); remark: listed apart in the source
[10] = molecular target: T4, human FcRIIIB protein (MednaBio, E1037); remark: listed apart in the source
[11] = molecular target: T1, human FcRn protein (MednaBio, E1032); remark: listed apart in the source
Method in brief: as §1

[12] = molecular target: T3, human FcRIIB/C protein (MednaBio, E1034); remark: listed apart in the source
Method in brief: as §1

[13] = molecular target: T5, human FcRIIA protein (MednaBio, E1033); remark: listed apart in the source
Method in brief: as §1

[14] = molecular target: T6, human FcRI protein (MednaBio, E1031); remark: listed apart in the source
Method in brief: as §1

[15] = molecular target: T7, human FcRIIIA-V158 protein (MednaBio, …); remark: listed apart in the source
Method in brief: as §1

T2 sequence (P08637 17-208 limits assumed): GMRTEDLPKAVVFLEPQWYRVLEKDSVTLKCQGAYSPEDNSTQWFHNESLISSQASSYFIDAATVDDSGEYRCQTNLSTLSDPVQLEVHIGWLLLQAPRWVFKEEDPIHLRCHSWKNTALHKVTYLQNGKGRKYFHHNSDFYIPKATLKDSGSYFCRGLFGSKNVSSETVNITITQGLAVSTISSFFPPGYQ
T6 sequence (P12314 16-288 limits assumed): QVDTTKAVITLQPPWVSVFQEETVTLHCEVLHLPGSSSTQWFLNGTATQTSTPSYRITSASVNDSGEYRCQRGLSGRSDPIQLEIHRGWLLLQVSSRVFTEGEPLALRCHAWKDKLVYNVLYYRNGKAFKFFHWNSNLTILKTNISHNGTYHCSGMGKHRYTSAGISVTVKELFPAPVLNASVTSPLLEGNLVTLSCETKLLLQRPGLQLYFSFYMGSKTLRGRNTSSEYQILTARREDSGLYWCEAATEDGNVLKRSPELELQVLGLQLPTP
T4 sequence (O75015 17-200 limits assumed): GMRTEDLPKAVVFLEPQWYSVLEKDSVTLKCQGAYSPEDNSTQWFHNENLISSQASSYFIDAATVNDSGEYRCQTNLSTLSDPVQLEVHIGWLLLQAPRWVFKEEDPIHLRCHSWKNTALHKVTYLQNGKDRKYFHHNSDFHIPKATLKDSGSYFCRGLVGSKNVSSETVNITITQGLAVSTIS
T7 sequence (P08637 17-208 F176V): as the sequence (P08637 17-208 limits assumed) above, with F160V counted along it

Kd [1]: 16 nM
koff [1]: 0.008 s⁻¹
kon [1]: 480000 M⁻¹ s⁻¹
Kd [2]: 120 nM
koff [2]: 0.02 s⁻¹
kon [2]: 170000 M⁻¹ s⁻¹
Kd [3]: 130 nM
koff [3]: 0.016 s⁻¹
kon [3]: 120000 M⁻¹ s⁻¹
Kd [4]: 130 nM
koff [4]: 0.027 s⁻¹
kon [4]: 210000 M⁻¹ s⁻¹
Kd [5]: 56 nM
koff [5]: 0.032 s⁻¹
kon [5]: 570000 M⁻¹ s⁻¹
Kd [6]: 5.6 nM
koff [6]: 0.0012 s⁻¹
kon [6]: 220000 M⁻¹ s⁻¹
Kd [7]: 60 nM
koff [7]: 0.027 s⁻¹
kon [7]: 450000 M⁻¹ s⁻¹
Kd [8]: 120 nM
koff [8]: 0.02 s⁻¹
kon [8]: 170000 M⁻¹ s⁻¹
Kd [9]: 120 nM
koff [9]: 0.02 s⁻¹
kon [9]: 170000 M⁻¹ s⁻¹
Kd [10]: 130 nM
koff [10]: 0.027 s⁻¹
kon [10]: 210000 M⁻¹ s⁻¹
B1: wild-type human IgG1 control (antibody)
heavy: not shown
light: SYELTQPPSVSVSPGQTASITCSGDNIGDQYAHWYQQKPGQSPVLVIYQDKNRPSGIPERFSGSNSGNTATLTISGTQAMDEADYYCATYTGFGSLAVFGGGTKLTVLGQPKAAPSVTLFPPSSEELQANKATLVCLISDFYPGAVTVAWKADSSPVKAGVETTTPSKQSNNKYAASSYLSLTPEQWKSHRSYSCQVTHEGSTVEKTVAPTECS
notes: Control IgG

Kd [11]: 18 nM
koff [11]: 0.012 s⁻¹
kon [11]: 640000 M⁻¹ s⁻¹
Kd [12]: 400 nM
koff [12]: 0.05 s⁻¹
kon [12]: 140000 M⁻¹ s⁻¹
Kd [13]: 400 nM
koff [13]: 0.055 s⁻¹
kon [13]: 140000 M⁻¹ s⁻¹
Kd [14]: 4.8 nM
koff [14]: 0.0017 s⁻¹
kon [14]: 360000 M⁻¹ s⁻¹
Kd [15]: 550 nM
koff [15]: 0.092 s⁻¹
kon [15]: 170000 M⁻¹ s⁻¹
B2: wild-type human IgG4 control (antibody)
heavy: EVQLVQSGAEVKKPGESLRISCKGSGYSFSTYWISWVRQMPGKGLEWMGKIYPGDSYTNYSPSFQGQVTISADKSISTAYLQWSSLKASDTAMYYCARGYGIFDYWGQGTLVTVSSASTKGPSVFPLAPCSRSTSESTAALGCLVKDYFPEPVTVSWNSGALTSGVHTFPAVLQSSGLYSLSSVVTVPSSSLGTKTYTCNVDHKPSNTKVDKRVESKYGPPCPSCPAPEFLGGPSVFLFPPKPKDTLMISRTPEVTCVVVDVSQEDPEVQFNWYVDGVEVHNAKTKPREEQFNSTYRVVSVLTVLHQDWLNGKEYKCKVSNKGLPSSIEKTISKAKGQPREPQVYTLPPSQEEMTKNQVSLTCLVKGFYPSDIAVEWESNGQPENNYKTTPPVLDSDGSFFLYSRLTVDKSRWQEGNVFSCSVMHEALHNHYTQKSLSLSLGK
light: B1 light
notes: Control IgG
